Laboratory results as given in publication PMC9396398, “Crystal structure of Ankyrin-G in complex with a fragment of Neurofascin reveals binding mechanisms required for integrity of the axon initial segment” (The Journal of Biological Chemistry, 2022).
Positions count from the first letter of the chain named.

Columns and labels:
[1] = molecular target: T1, AnkG R1-24 I277Q, L310Q (Rattus norvegicus); test: ITC
T1 chain: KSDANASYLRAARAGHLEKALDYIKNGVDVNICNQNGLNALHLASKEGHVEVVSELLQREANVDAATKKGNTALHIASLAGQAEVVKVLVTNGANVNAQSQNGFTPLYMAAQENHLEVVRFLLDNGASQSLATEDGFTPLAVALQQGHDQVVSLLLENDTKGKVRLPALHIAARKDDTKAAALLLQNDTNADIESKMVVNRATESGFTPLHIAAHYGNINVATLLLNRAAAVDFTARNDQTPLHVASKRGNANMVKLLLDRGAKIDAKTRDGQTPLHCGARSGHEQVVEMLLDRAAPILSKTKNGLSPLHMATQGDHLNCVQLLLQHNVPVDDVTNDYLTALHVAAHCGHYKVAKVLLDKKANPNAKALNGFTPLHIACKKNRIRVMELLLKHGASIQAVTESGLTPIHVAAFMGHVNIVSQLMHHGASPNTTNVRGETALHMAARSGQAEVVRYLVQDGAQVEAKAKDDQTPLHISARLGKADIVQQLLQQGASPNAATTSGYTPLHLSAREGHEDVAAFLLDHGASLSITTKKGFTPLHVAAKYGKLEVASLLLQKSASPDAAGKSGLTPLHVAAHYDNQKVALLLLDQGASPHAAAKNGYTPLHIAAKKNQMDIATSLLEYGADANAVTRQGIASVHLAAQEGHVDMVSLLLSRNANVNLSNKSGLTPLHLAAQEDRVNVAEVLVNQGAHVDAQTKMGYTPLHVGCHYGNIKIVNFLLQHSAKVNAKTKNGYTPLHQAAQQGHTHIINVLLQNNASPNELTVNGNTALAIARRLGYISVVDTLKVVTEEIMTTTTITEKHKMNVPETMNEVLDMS

[2] = molecular target: T2, AnkG R1-24 R318A, Q351A (Rattus norvegicus); test: ITC
T2 chain: T1 chain with Q240I, Q273L, R281A, Q314A

[3] = molecular target: T3, AnkG R1-24 H384A (Rattus norvegicus); test: ITC
T3 chain: T1 chain with Q240I, Q273L, H347A

[4] = molecular target: T4, AnkG R8-16 (AnkG 275 to 571) (UniProt O70511 275-571); test: ITC; VP-ITC at 25 °C; 50 mM Tris, 100 mM NaCl, 1 mM EDTA, 1 mM DTT, pH 7.8; Nfasc proteins (200 μM) in the syringe, AnkG proteins (20 μM) in the cell; one-site binding model; settings: both partners purified
T4 construct: Ankyrin-G (AnkG), ANK repeats 8-16, residues 275-571 (limits are told for the crystallisation construct); In the crystal it stood fused behind the Nfasc ABD; also called eighth to sixteenth ANK repeats; source: E. coli BL21 (DE3), purified (Ni-NTA, size-exclusion chromatography)
T4 sequence (looked up): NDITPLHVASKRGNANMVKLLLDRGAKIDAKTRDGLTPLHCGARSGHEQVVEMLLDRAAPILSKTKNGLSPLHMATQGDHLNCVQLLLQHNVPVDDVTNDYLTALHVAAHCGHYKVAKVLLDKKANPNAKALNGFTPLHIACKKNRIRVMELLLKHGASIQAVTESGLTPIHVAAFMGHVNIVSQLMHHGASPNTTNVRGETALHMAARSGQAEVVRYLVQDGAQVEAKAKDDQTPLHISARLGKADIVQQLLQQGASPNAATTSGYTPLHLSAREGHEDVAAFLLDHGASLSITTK

- Kd [1]: 3000 nM
- Kd [2]: 670 nM
- Kd [3]: 1700 nM
- Kd [4]: ~1200 nM
B1: Nfasc ankyrin-binding domain (ABD, residues 1187-1214) (domain or fragment, UniProt P97685 1187-1214, looked up)
chain: SDDSLVDYGEGGEGQFNEDGSFIGQYTV
notes: also called Nfasc ABD; source: E. coli BL21 (DE3), purified (Ni-NTA, size-exclusion chromatography)
